Reference: article doi:10.1101/803833

Target: human SNAP-tagged GLP-1R (glucagon-like peptide-1 receptor) on HEK293-SNAP-GLP-1R cells (human) (UniProt P43220)
Assay: FRET or BRET

Chain of UniProt P43220 (P43220 24-463): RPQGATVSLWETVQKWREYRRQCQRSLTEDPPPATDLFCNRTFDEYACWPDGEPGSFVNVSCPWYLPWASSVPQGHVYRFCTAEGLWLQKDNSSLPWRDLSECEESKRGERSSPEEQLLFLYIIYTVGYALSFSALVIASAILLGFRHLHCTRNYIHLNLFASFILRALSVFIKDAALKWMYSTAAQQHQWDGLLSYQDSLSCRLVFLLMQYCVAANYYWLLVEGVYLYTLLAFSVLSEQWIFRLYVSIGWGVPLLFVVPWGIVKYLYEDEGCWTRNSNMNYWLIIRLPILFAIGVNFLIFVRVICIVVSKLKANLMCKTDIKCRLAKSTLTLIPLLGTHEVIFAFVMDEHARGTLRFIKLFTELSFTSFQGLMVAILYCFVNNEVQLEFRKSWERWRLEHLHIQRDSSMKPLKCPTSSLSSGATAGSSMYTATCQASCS

exendin-4 (from UniProt P26349 48-87) (peptide)
log Kd: -9.2

lixisenatide (peptide)
log Kd: -9
